These results are taken from the DeepSol protein solubility set.

This data set is described as follows: soluble on expression in E. coli; label from the status in PepcDB or PDB records.
In the case of “MSIRAEEISALIKQQIENYQSEIEVSDVGTVIQVGDGIARAHGLDNVMAGELVEFSNGVMGLAQNLEENNVGIIILGPYTEIREGDEVRRTGRIMQVPVGKELIGRVVNPLGQPVDGLGPINTTNTRPIESPAPGVMDRKSVHEPLQTGIKAIDALVPIGRGQRELIIGDRQTGKTAVALDTIINQKDEDMICIYVAIGQKESTVRNVVETLRKHGALEYTIVVTASASQPAPLLYLAPYAGVTMGEEFMYNGKHVLVVYDDLSKQAAAYRELSLLLRRPPGREAYPGDVFYLHSRLLERAAKLSDAKGGGSLTALPFIETQAGDVSAYIPTNVISITDGQIFLQSDLFFSGVRPAIDAGTSVSRVGGSAQIKAMSKVSGTLRLDLASYRELEAFAQFGSDLDKATQAKLNRGARTVEVLKQGLHKPLRVEKQVIILYALTRGFLDDIPVVDITRFEEEFHAWLDSNATDLLEEIRTTKKLADDDKFAAAINGFKKVFVASE”, the “soluble on expression in E. coli” value was “not soluble”.

For the sequence “MKKDITLFTSARPELKFFRLSECKEHLDTAAMWAKNAWGYMHLDDEQFHYKQLQELCEHVYIAMYDGLPVGMLAVIEKTLSLEENREESSEKIVEEPSTPEITEMKNAYLDYVYIDERARSIGLAGIIIEKAKNLAREMNAEVMSLETLNSTLNGFYKRKGGRVICEGRYNDSYPTEVMRLRF”, the “soluble on expression in E. coli” value is “not soluble”.

In the case of “MDGDIIDQYRFPSPHPGIDVFFVTYMSQGLKVKGFLAAPKRKGVYDGFLYLRGGIKNVGQVRVPRLVQFASQGFVVFAPLYRGNGGGEGNEDFAGDDRYDALAGFHLLRRHPLVHPGRVHMFGFSRGGAMALHAAVMAEGVCSVAVWGGVADLELTYWERPDLRRMMKRVIGGTPNKCPERYRHRTPLYHLERLKAPVLIIHGGRDENVSIEHAWRLERRLKQLGKPVTAWYFPEFTHYFPPQANRETVQRLTEWMKQQPTM”, the “soluble on expression in E. coli” value is “not soluble”.

Turning to “MHRTYSLRNSRAPTASQLQNPPPPPSTTKGRFFGKGGLAYSFRRSAAGAFGPELSRKLSQLVKIEKNVLRSMELTANERRDAAKQLSIWGLENDDDVSDITDKLGVLIYEVSELDDQFIDRYDQYRLTLKSIRDIEGSVQPSRDRKDKITDKIAYLKYKDPQSPKIEVLEQELVRAEAESLVAEAQLSNITRSKLRAAFNYQFDSIIEHSEKIALIAGYGKALLELLDDSPVTPGETRPAYDGYEASKQIIIDAESALNEWTLDSAQVKPTLSFKQDYEDFEPEEGEEEEEEDGQGRWSEDEQEDGQIEEPEQEEEGAVEEHEQVGHQQSESLPQQTTA”, the “soluble on expression in E. coli” value is reported as “soluble”.

Take “MKPPFEQALGIIRQLKRHGYEAYFVGGAVRDLLIGRPIGDVDIATSALPEEVMRLFPKTIDVGSKHGTVVVVHEGTAYEVTTFRTDGDYEDHRRPESVTFVRSLEEDLKRRDFTMNAIAMDERGTIIDPFGGQEAIERRLICTVGAADERFREDALRMMRAVRFVSQLGFALAEDTKSAIVQNAPLMAHISVERMTMEMEKLLAGPFVAEALPLLADTGLFAYLPGLAAKEQLLRSAAAFRWPWLTKREERWALLCRALDVKDIRPFLRAWKLPNKVIDEAGAILAALDDVPRPEAWTNEQLFSAGLERALSVEAVRAALCGAPSEPHHEELRRRFAALPIKTKGELAVNGKDVIRWAGKPAGPWVKETLDAIWRAVVSSEVENEKERIYAWLMERNRTHEKNC”: the “soluble on expression in E. coli” value was “not soluble”.

With “MARLLMIPGPTPVDPEVLLAMARPVISHTSPDFDEIHGETVSMLQKLFRTSGKVFLLPGSGSLGMEFAVRSVAGRGSRALVLKAGYFGGYFERILRSLGASVTVVESPVGRGFTGADVEEALDRAGDVDVVFVQHVETSTSVANPVREIAGVVKKNGARLVVDGIASVGGMDLRLDEWGVDVALTGSQKALSTPPGLAIVAFSSEYSVELEKREPSGIYFDFLSLSREMESTRNYHITPAVNLVFALNASLKRILGEGLENRFERHRVLARAFTRAMEALGLRLVAEEPFRAWTVTAVYLPQGIDWSRFYSVMRKRGVEVAGGLGGLKGKIFRVGHMGEVDANDLIATIAAIERSLVELGYREARLGQGLEAAQKELSSLGL”, the “soluble on expression in E. coli” value is listed as “soluble”.

On to “MSLHYYLGIDCGGTFIKAAIFDQNGTLQSIARRNIPIISEKPGYAERDMDELWNLCAQVIQKTIRQSSILPQQIKAIGISAQGKGAFFLDKDNKPLGRAILSSDQRAYEIVQCWQKENILQKFYPITLQTLWMGHPVSILRWIKENEPSRYEQIHTILMSHDYLRFCLTEKLYCEETNISESNFYNMREGKYDIQLAKLFGITECIDKLPPIIKSNKIAGYVTSRAAEQSGLVEGIPVVGGLFDVVSTALCADLKDDQHLNVVLGTWSVVSGVTHYIDDNQTIPFVYGKYPEKNKFIIHEASPTSAGNLEWFVNQFNLPNYDDINHEIAKLKPASSSVLFAPFLYGSNAKLGMQAGFYGIQSHHTQIHLLQAIYEGVIFSLMSHLERMQVRFPNASTLRVTGGPAKSEVWMQMLADISGMRLEIPNIEETGCLGAALMAMQAESAVEISQILNIDRKIFLPDKNQYSKYQHKYHRYLKFIEALEGHHHHHH”, for which the “soluble on expression in E. coli” value is listed as “soluble”.

Turning to “MSNNNLSVISLVSIGEHPTSRRPRRAEQDARAIELGLKLVGDNLQTLHAGELSDDASQQTALRSYLGMGLAEINLLEMPENADAVLVIAEYLKQQKIDIILTGVCAESGESSGMLPYLLAEQLGMAMVTSIAEILSIDEVNKQAEVLQALPRGQRRKLKVDLPFIASVDMAAALPRQSAFGPAMRGQFEATLGANFTDEESSTWQTADAKKRPKRLKIIKAKTAADRFKAATAKASGGGGKVVHGVEESAQAILDLLIEEGLV”, the “soluble on expression in E. coli” value is listed as “not soluble”.

With “MAHHHHHHMSSEHWVFFGLPPFFTEQHSSATLDRQCTLWSNLLLDHAIYHAQRTAGGDTNALLRFYTTQSDIFYNPAINKRLSPEGAHTMLQSLVARHPNHVVIVSDGGPRDFSVLVCTTEDGFKGMEETLLRYILDHGEVQTTAMLSKKGTVMTFDELASGAALGYGQTRSAYLARFSSAAVPVADVGRLSEEQAIRMYLHALNRRPVSAMRPFKVTLFNLDGTATQPYQGVKFGGE”, the “soluble on expression in E. coli” value is recorded as “soluble”.

Regarding “MAHHHHHHMAANCIFCKIIKGDIPCAKVAETSKALAFMDINPLSRGHMLVIPKEHASCLHELGMEDAADVGVLLAKASRAVAGPDGSMQYNVLQNNGSLAHQEVPHVHFHIIPKTDEKTGLKIGWDTVKVASDELAEDAKRYSEAIAKI”, the “soluble on expression in E. coli” value is “soluble”.

For “MSMPRYYEYRHVVGFEETNLVGNVYYVNYLRWQGRCREMFLYEHAPEILDELRADLKLFTLKAECEFFAELAPFDRLAVRMRLVELTQTQMELGFDYLRLGGDDLLVARGRQRIACMRGPNGRTEPVRVPAGLVRAFAPFRSATVGQ”, the “soluble on expression in E. coli” value was “soluble”.

For the sequence “MSVLQKIADIEAEMARTQKNKATNAHLGILKAKLAKLRRDLITPKGGGGGPGEGFDVAKTGDARIGFVGFPSVGKSTLLCNLAGVFSEVAAYEFTTLTTVPGVIRYKGAKIQLLDLPGIIEGAKDGKGRGKQVIAVARTCSLILMVLDVMKPLQHKKLLEYELEGFGIRLNKQPPNIGYKRKEKGGINLTMLVPQSELDLDLVKSILAEYRIHNADITLRYDATSEDLIDVIEGNRIYIPCIYVLNKIDQISIEELDIIYRIPHTVPISAHHKWNFDDLLEKVWEYLNLIRIYTKPKGQLPDYSQPIVLNAERKSIEDLCTKIHKSLQKDFKCALVWGASAKHNPQRVGRDHVLIDEDVVQVIKKV”, the “soluble on expression in E. coli” value is recorded as “not soluble”.

As to “MSLGFHEFSSPYDWSRIASYKRTAKAAFGGMVDLSVGSPVDPVPDSVRKALAVSSNDPNAYGYPVTAGTADLRDAIHEWFAAARNVDLRAIGADAVPTVGSKEGVALMASLLHFGEGDVVVQPKVSYPTYEIGTQLAGAQTLKVDDVADADSWKDVPGVKAVWVNSPCNPTGEVLSAEQMAGIVRAARAIGAVVLSDECYALMQWEDDVAEADADTLASTPCALRADVCGGSAEGVLVLYSLSKQSNMAGYRTALIAGDQSLIGPMAAYRKQIGQIIPGPVQAAMAAGLRDFDAVKTQHSRYQERLGMLVSALRAYGYCTDMPQGALYVWVKAKSGDCWEDLRQLAEIGIVASPGEFYGAPEYLRFSATASDAAIASAAERLAREGHHHHHH”, the “soluble on expression in E. coli” value is “soluble”.

Regarding “GPGSMLRLSASRRSAQNILHDIQAAVESRSIMATSSFAQRRSFLVALSEELHRNSEHIIHANRRDCDLFGRQQQQRGTPSVTIPPTLPSTSAATSLQPSSSLHGGPAGYPPFLGRPGHRVGDAQGISVAAENPATATPAPNAAEGSGASSPRRQSSLDYVAGASPVGSPDPNGAGGAAAGGRAAASPAGAGPALGETAAGSRATSTSGTAAPVSPSRWAARASSASLQLVPTAVSGHATRTEAGGGGGHLLITPDNHFLISPLRLDKLHTTIEYLLCQPDPIAIPPSCWLHDSAEGDSGAAANSLREQGSLGAAPGHNSPPPPSAAGSHAGCGRCTRRTDRLEVYELSVPLGMVGILSRFRPRISIDTVAMGLFAGNTVLLDGGVSLYNTNMALMSSVRRALTTAGLSPSAVVCVESYDAAHRSTSEWLQLSDCVDLAVVCGPPKLYQFASRYSTIPLMRATGQFSSVYVDQSASFEVALEVILNSKFQKLGAANAVTTVIVHSDFPRYTELVLALAAEGAVLLGDVTAQERVPDCVLELASEEEYQGLSQYGLRDAARTLCLKTVDSLAQALFFIESFGSKQSDCIVATDLEVCATYCRHVDTAVALVNASTRLSSGVPLGCGVDFAISTSKTHCRGPLTVEMMTTRKLVARSLSAHHGALR”, the “soluble on expression in E. coli” value is reported as “not soluble”.

Regarding “MDKDCEMKRTTLDSPLGKLELSGCEQGLHEIKLLGKGTSAADAVEVPAPAAVLGGPEPLMQCTAWLNAYFHQPEAIEEFPVPALHHPVFQQESFTRQVLWKLLKVVKFGEVISYQQLAALAGNPKAARAVGGAMRGNPVPILIPCHRVVCSSGAVGNYSGGLAVKEWLLAHEGHRLGKPGLGGSSGLAGAWLKGAGATSGSPPAGRN”, the “soluble on expression in E. coli” value is “soluble”.

“MSLDSLGAINKIQDFLQKQEYKTLEYNLTTTEVVMENVTAFWEEGFGELFEKAKQNNNNRKTSNGDDSLFFSNFSLLGTPVLKDINFKIERGQLLAVAGSTGAGKTSLLMMIMGELEPSEGKIKHSGRISFCSQFSWIMPGTIKENIIFGVSYDEYRYRSVIKACQLEEDISKFAEKDNIVLGEGGITLSGGQRARISLARAVYKDADLYLLDSPFGYLDVLTEKEIFESCVCKLMANKTRILVTSKMEHLKKADKILILMKVAAIFMGHFQNSKIYSQTLAQNSWDVILSTNLVQKEEIQS”: the “soluble on expression in E. coli” value is recorded as “soluble”.

As for “MSEAETGEPNGFRSCYDKLRKAVGNIPMDASKSTKLHNLSSRKISEILPNLYLSGRTVSQNSELLKEKNITTVINVSDREVVNYKNNQKFIKNYRFYAMSDTASAKFDGIIEEAVRIIHDSRSKEEGVLVHCFLGVSRSATLVAFYLISALSINWRDAVDFIHHRRFSANPNFGFLHQLKVYSTTKAKEFRNQLISERCLRMRESDKDIIKKYLPLAVFEL”, the “soluble on expression in E. coli” value is “not soluble”.

On to “MGSDKIHHHHHHETLRAFQRKAYESTEKTNCVCFFIQEALEIAENLEHLATDPNYQKPPLFGVPVSIKESIHVKNLDSTAGYAQKINNPSDANSVSVDQLIRLGAVPFVHTNIPIALLSYGCSNGVYGTTLNPLDNSRVPGGSSGGEAALVSLGGSVLGIGTDVGGSIRTPASFCGLAGFKSSSDRSPQLGKTASIPGRQLLLSVEGPIAKNIDVCVEYLRLKWNDPLLYKKDVYMPPVKFQENLYNSEKPLKIGYYTFDGYQTASPAYQRAVRETVAVLKELGHELVPFEVPQPDHMYSIFCAGATADGGLYLMDSLANDIIPPEADIGFPVAKLPHFIQRLLRKYWHHRRERQIIQELPHDTEEMRQMHEKIEDYRHEFVLAMRAKKLDALVCPAFGCPPPHHGMPNKILGANSYPALYNLIDFAAGTVPVTVQKQEDEVELRKMKTEDSWDRRVVTESKNCIGLPVSVQIATPPYREEMCLRLLKQVEAKIGLYSRTH”, for which the “soluble on expression in E. coli” value was “not soluble”.

Take “MRSGDAEIKGIKPKVIEEYSLSQGSGPSNDSWKSLMSSAKDTPLQYDHMNRESLKKYFNPNAQLIEDPLDKPIQYRVCEKCGKPLALTAIVDHLENHCAGASGK”: the “soluble on expression in E. coli” value is on record as “soluble”.
